One assay concerns the target T1, hPD-1.mFc (human, UniProt Q15116 25-170).
T1 construct: not shown: mFc tag
The assay is described as follows: ELISA on coated hPD1 (sheet prints 'hPD1.His', text says hPD-1.mFc), detected with HRP goat anti-human IgG. As to the method:
(§1) After blocking with 2% BSA-PBS, 10 μg/ml and 1.0 μg/ml of testing antibodies were respectively added into the plates and incubated for 1 hour at room temperature. The secondary antibody HRP-labeled goat anti-human IgG (Bethyl A80-304P) was then added and incubated for 1 hour. Washes with PBST were performed between each step. The color reaction was developed by TMB substrate, and then stopped by 2N HCl. The absorbance was read at 450 nm using a Microplate Spectrophotometer (SpectraMax® M5e).

The target in assay [1] is T2, human CTLA-4 ECD protein (in house) (human, UniProt P16410 36-161).
T2 construct: extracellular domain; also called immobilized human CTLA-4 ECD protein; hCTLA-4; not shown: 6xHis or Fc tag
T2 sequence (P16410 36-161): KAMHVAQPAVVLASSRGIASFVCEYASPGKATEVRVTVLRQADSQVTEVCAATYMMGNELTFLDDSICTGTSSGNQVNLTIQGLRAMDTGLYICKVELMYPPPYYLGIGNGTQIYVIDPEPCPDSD
In words: ELISA, human CTLA4 ECD coated at 1.0 µg/ml. The procedure: (§2) After blocking with 2% BSA-PBS, serial diluted antibodies were added into each well and incubated for 1 hour at room temperature. HRP-labeled goat anti-human IgG (Bethyl A80-304P) were used as the secondary antibody and incubated for 1 hour. The color was developed by TMB substrate, and then stopped by 2N HCl. The absorbance was read at 450 nm using a Microplate Spectrophotometer (SpectraMax® M5e).
A general note: An ELISA detects its analyte on a solid surface through an enzyme-linked reagent.

The target in a further assay is T3, hICOS.mFC (human, UniProt Q9Y6W8 21-140).
T3 construct: not shown: mFc tag
T3 sequence (looked up): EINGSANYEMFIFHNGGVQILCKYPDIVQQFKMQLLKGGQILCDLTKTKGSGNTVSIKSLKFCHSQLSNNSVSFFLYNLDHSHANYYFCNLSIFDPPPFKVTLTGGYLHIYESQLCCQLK
The assay is described as follows: ELISA on coated hICOS.mFc, detected with HRP goat anti-human IgG. As to the method:
as §1

In a further assay the target is T4, hCD28.mFc (human, UniProt P10747 19-152).
T4 construct: not shown: mFc tag
The assay is described as follows: ELISA on coated hCD28 (sheet prints 'hCD28.His', text says hCD28.mFc), detected with HRP goat anti-human IgG. As to the method: as §1

In the next assay the target is T5, hBTLA.His (human, UniProt Q7Z6A9 31-157, limits assumed).
T5 construct: not shown: His tag
The assay is described as follows: ELISA on coated BTLA.His, detected with HRP goat anti-human IgG. The procedure: as §1

The target of assay [2] is T6, human CTLA-4 on transfected cells (human, UniProt P16410 36-223).
T6 construct: whole, on cells; also called cell surface human CTLA-4; hCTLA4 transfected cells
T6 sequence (P16410 36-223): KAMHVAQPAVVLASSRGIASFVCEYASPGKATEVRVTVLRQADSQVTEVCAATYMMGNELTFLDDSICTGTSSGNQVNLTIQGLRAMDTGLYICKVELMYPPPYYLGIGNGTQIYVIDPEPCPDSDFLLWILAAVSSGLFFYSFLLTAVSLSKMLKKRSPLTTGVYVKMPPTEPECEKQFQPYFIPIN
The assay is described as follows: FACS on CTLA-4 transfected cells; antibody incubated in human serum at 37 C for 14 days. As to the method: (§3) Testing antibodies were incubated in freshly isolated human serum (serum content >90%) at 37° C. On indicated time points, an aliquot of serum treated sample was removed from the incubator and snap frozen in liquid nitrogen, and then stored at −80° C. until test. The samples were quickly thawed immediately prior to the stability test. Serial dilutions of antibodies were incubated with CTLA-4 transfected cells for 1 hour at 4° C. After washing, FITC conjugated goat anti-human IgG antibody (Jackson ImmunoResearch) was added to the cells and incubated at 4° C. for 1 hour. Finally, the cells were washed and resuspended in 1% BSA-PBS. The MFI fluorescence values were measured by flow cytometry and analyzed by FlowJo.

For assay [3], the target named is T6, human CTLA-4 on transfected cells. In words: FACS on CTLA-4 transfected cells; antibody incubated in human serum at 37 C for 0 days. As to the method: as §3
Assay [4] addresses T7, cynomolgus CTLA-4 on transfected cells (Macaca fascicularis (cynomolgus monkey), UniProt G7PL88 36-223).
T7 construct: also called cell surface cyno CTLA-4; Cynomolgus CTLA4 expressing cell pool
The assay is described as follows: FACS on cynomolgus CTLA4 expressing cell pool. The procedure:
(§4) For FACS binding, engineered human CTLA-4 expressing cells were seeded at 1×10⁵ cells/well in U-bottom 96-well plates (COSTAR 3799). After centrifugation at 1500 rpm for 4 minutes at 4° C., the supernatants were moved and the serial dilutions of antibodies in 1% BSA-DPBS were added to the cells. The plates were incubated at 4° C. for 1 hour. […] The binding of the antibodies to the cells was tested by flow cytometry and the mean fluorescence intensity (MFI) was analyzed by FlowJo.
(§5) The binding of testing antibodies to […] was assessed by ELISA and FACS as the described above. […] For FACS binding, engineered Cynomolgus CTLA4 expressing cell pool was used.

Assay [5] addresses T8, cynomolgus CTLA-4 ECD protein (in house) (Macaca fascicularis (cynomolgus monkey), UniProt G7PL88 36-161).
T8 construct: also called immobilized cyno CTLA-4 ECD protein; cyno CTLA4 ECD protein; not shown: C-terminal tag: 6xHis or Fc
The assay is described as follows: ELISA, cyno CTLA4 ECD coated at 1.0 µg/ml. As to the method:
as §2, §5

In assay [6] the target is T2, human CTLA-4 ECD protein (in house). In words: competition ELISA, hCTLA4 ECD coated; competitor his-tagged hCD86. As to the method: (§6) After washing with PBST, biotin-labeled anti-His mAb (GenScript-A00613) was added and incubation 1 hour. […] The color reaction was developed by TMB substrate, and then stopped by 2N HCl. The absorbance was read at 450 nm using a Microplate Spectrophotometer (SpectraMax® M5e).

Assay [7] shares this target. The assay is described as follows: competition FACS, biotinylated hCTLA4 ECD; competitor hCD86 on transfected cells. As to the method: (§7) After washing, streptavidin PE (BD Pharmingen-554061) was added to the cells and incubated at 4° C. for 1 hour. The fluorescence values were measured by flow cytometry and analyzed by FlowJo.
Assay [8] shares this target. The assay is described as follows: competition (epitope binning) ELISA on coated human CTLA4 protein; competitor 0.02 ug/ml W316-BMK1-Biotin, detected with streptavidin-HRP. The procedure:
After washing, HRP-conjugated streptavidin were added and incubated for 1 hour. The color was developed by dispensing TMB substrate, and then stopped by 2N HCl. The absorbance was read at 450 nm using a Microplate Spectrophotometer (SpectraMax® M5e).

In assay [9] the target is T6, human CTLA-4 on transfected cells. The assay is described as follows: FACS on CTLA-4 transfected cells; antibody incubated in human serum at 37 C for 7 days. As to the method: as §3
In assay [10] the target is T2, human CTLA-4 ECD protein (in house). The assay is described as follows: competition ELISA, hCTLA4 ECD coated; competitor his-tagged hCD80. The procedure: as §6
In assay [11] the target is T6, human CTLA-4 on transfected cells. In words: FACS on CTLA-4 transfected cells; antibody incubated in human serum at 37 C for 1 day. The procedure:
as §3

Assay [12] deals with T2, human CTLA-4 ECD protein (in house). The assay is described as follows: competition FACS, biotinylated hCTLA4 ECD; competitor hCD80 on transfected cells. As to the method:
as §7

In assay [13] the target is T6, human CTLA-4 on transfected cells. The assay is described as follows: FACS on CTLA-4 transfected cells; antibody incubated in human serum at 37 C for 4 days. The procedure:
as §3

Assay [14] has the same target. In words: FACS on human CTLA-4 expressing cells. As to the method: as §4
Assay [15] deals with T7, cynomolgus CTLA-4 on transfected cells. In words: FACS affinity on cyno CTLA-4 transfected cells (cPro1), quantitative beads. The procedure:
(§8) Human CTLA-4 or cyno CTLA-4 transfected cells were plated into 96-well U-bottom plates (BD) at a density of 5×10⁴ cells/well. Testing antibodies were 1:2-fold serially diluted in 1% BSA-PBS and incubated with the cells at 4° C. for 1 hr. After centrifugation at 1500 rpm for 4 min, the supernatant was discarded. The secondary antibody FITC conjugated goat anti-human IgG Fc (Jackson Immunoresearch Lab) was added and incubated at 4° C. in the dark for 30 min. The cells were then washed once and re-suspended in 1% BSA-PBS for the analysis by flow cytometry (BD CantoII). Fluorescence intensity was converted to bound molecules/cell based on the quantitative beads (Quantum™ MESF Kits, Bangs Laboratories). KD was calculated using Graphpad Prism5.

The target of assay [16] is T6, human CTLA-4 on transfected cells. In words: cell-based or functional assay.
Assay [17] has as its target T9, human CTLA-4 ECD, His-tagged (human, UniProt P16410 36-161).
T9 construct: extracellular domain; also called W316.hprol.ECD.his; hCTLA-4.His; not shown: hexa-histidine (6xHis) tag
In words: SPR (Biacore T200), antibody captured by anti-human IgG Fc, CTLA-4 ECD his as analyte. The procedure: The experiment was to measure the on-rate constant (ka) and off-rate constant (kd) of the antibodies to CTLA-4 ECD based on SPR technology. The affinity constant (KD) is thus consequently determined. Biacore T200, Series S Sensor Chip CM5, Amine Coupling Kit, and 10XHBS-EP were from GE Healthcare. […] In immobilization step, the activation buffer was prepared by mixing 400 mM EDC and 100 mM NHS immediately prior to injection. The CM5 sensor chip was activated for 420 s with the activation buffer. 30 μg/mL of goat anti-human IgG Fc antibody in 10 mM NaAc (pH 4.5) was then injected to Fc1-Fc4 channels for 200 s at a flow rate of 5 μL/min. The chip was deactivated by 1 M ethanolamine-HCl (GE). Then the antibodies were captured on the chip. Briefly, 4 μg/mL antibodies in running buffer (HBS-EP+) was injected individually to Fc3 channel for 30 s at a flow rate of 10 μL/min. […] Regeneration buffer (10 mM Glycine pH 1.5) was injected at 10 μL/min for 30 s following every dissociation phase.

Assay [18] has as its target T6, human CTLA-4 on transfected cells. The assay is described as follows: FACS affinity on human CTLA-4 transfected cells (hPro1), quantitative beads. The procedure:
as §8

Substitutions are numbered along the chain they refer to.

T7 sequence (G7PL88 entry or part of it limits assumed): as the sequence (P16410 36-223) above, with S14N, I18T, L106M counted along it
T9 sequence (P16410 36-161): as the sequence (P16410 36-161) above
T8 sequence (G7PL88 entry or part of it limits assumed): as the sequence (P16410 36-161) above, with S14N, I18T, L106M counted along it
T1 sequence (Q15116 25-170): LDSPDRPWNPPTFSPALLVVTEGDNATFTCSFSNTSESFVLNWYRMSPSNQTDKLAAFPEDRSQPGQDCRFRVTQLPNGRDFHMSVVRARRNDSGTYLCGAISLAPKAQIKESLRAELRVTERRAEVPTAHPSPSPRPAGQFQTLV

B1: W3166-z13 (Fc fusion)
chain: QVQLVESGGGLVQPGGSLRLSCAASGRTFSSYAMGWFRQAPGMEREFVASIRWSDQTTYVPNSVKGRFTISRDNSKNTLYLQMNSLRPEDTAVYYCATGPTRLSFYSGNYRTYDSWGQGTLVTVSS
notes: Tested as VHH linked to human IgG1 Fc; also called humanized VHH antibody W3166-z13; W3166-z13 VHH fused with Fc of human IgG1; not shown: human IgG1 Fc region
Turning to B1, the binding result in the assay with hPD-1.mFc, with hICOS.mFC, with hCD28.mFc and with hBTLA.His was “no binding (tested: 10 ug/ml)” each time. Also, the EC50 – broadly, the midpoint of the concentration-response curve – in [1] is 0.0983 nM; in [2] it was 0.244 nM; in [3] it was 0.214 nM; in [4] it was 1.5 nM; in [5], 0.0732 nM; in [9], 0.223 nM. The EC50 in assay [11] came to 0.221 nM; in [13], 0.237 nM; in assay [14], 0.325 nM. The IC50 (commonly the point on the concentration scale where inhibition reaches its midpoint) in assay [6] is 2.06 nM; in [7] it was 0.22 nM; in assay [10], 1.1 nM; in assay [12], 0.109 nM. Moreover, in assay [8], the “IC50 (read off the curve)” value is about 3 nM.

B2: W3166-z17 (Fc fusion)
chain: B1 chain with L11V, M43K
notes: Tested as VHH linked to human IgG1 Fc; also called humanized VHH antibody W3166-z17; W3166-z17 VHH fused with Fc of human IgG1; not shown: human IgG1 Fc region
In the case of B2, the Kd (usually the equilibrium constant for the complex coming apart) in assay [15] was 0.14 nM; in assay [17], 3.13 nM; in assay [18], 0.049 nM. Besides, the binding result with hPD-1.mFc, in the assay with hICOS.mFC, with hCD28.mFc and with hBTLA.His was “no binding (tested: 10 ug/ml)” throughout. The EC50 was 0.0512 nM in assay [1]; 0.199 nM in assay [2]; 0.19 nM in [3]; 1.16 nM in assay [4]; 0.0401 nM in assay [5]; 0.221 nM in [9]. The EC50 worked out at 0.195 nM in [11], 0.193 nM in [13] and 0.297 nM in assay [14]. The “EC50 in inducing ADCC effect” value in [16] amounted to 0.247 nM. In addition, the IC50 in assay [6] turned out to be 1.67 nM; in assay [7], 0.163 nM; in [10], 0.908 nM; in [12] it was 0.0786 nM. Also, the koff – broadly, a measure of how fast the partners let go of each other – in assay [17] was 0.0015 s⁻¹. Further, the kon (in general, a measure of how fast the partners come together) in [17] was 481000 M⁻¹ s⁻¹. Also, the “IC50 (read off the curve)” value in assay [8] was about 3 nM.

(Values after US20230167177A1 (WUXI BIOLOGICS IRELAND, published 2023).)
